Measured values taken from article PMC2880590.
Like-named read-outs stand apart in the source and are kept apart here.

What was measured:
[1] = target: activated platelet integrin αIIbβ3 (human (endogenous in platelets)) (UniProt P08514)
[2] = target: vicrostatin (VCN) (Agkistrodon contortrix contortrix (southern copperhead venom gland cDNA library) | not stated); experiment: fluorescence polarisation; differing concentrations of purified soluble integrin with a constant amount of FITC-labelled CN or VCN, in solution, steady state; Scatchard analysis and non-linear curve fit
[3] = target: contortrostatin (CN), native (Agkistrodon contortrix contortrix); experiment: as above
[4] = target: vicrostatin (VCN) (Agkistrodon contortrix contortrix (southern copperhead venom gland cDNA library) | not stated); experiment: fluorescence polarisation
[5] = target: contortrostatin (CN), native (Agkistrodon contortrix contortrix); experiment: fluorescence polarisation
[6] = target: activated platelet integrin αIIbβ3 (human (endogenous in platelets)) (UniProt P08514); remark: listed apart in the source

UniProt P08514, sequence (P08514 32-1039, chain 1 of 2): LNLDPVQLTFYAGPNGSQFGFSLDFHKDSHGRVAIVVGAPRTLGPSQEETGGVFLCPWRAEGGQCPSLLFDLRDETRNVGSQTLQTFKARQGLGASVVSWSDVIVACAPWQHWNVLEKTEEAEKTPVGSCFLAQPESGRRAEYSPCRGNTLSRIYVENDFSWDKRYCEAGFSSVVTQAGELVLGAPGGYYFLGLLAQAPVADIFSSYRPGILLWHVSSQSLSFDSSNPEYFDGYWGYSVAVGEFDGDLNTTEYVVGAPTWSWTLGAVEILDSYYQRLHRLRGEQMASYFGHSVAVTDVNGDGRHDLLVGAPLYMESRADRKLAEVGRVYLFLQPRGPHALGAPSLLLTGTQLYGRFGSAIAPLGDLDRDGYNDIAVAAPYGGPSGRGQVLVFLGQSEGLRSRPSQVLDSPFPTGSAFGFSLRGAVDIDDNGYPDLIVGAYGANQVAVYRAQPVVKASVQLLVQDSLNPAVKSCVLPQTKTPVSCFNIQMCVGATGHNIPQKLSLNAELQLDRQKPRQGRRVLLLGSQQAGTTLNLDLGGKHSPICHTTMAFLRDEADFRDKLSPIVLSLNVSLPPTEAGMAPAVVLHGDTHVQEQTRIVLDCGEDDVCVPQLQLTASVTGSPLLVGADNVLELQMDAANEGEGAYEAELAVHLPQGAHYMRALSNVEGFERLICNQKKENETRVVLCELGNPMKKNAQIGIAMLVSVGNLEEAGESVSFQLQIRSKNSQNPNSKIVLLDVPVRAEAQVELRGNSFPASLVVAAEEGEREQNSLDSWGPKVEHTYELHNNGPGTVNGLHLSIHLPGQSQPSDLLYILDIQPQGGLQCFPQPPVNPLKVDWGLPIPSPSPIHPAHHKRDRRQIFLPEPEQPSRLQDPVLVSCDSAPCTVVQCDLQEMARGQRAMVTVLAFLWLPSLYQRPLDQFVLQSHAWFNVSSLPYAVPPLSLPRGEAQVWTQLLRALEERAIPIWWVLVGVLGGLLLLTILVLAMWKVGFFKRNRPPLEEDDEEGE
UniProt P08514, sequence (P05106 27-788, chain 2 of 2, further chain): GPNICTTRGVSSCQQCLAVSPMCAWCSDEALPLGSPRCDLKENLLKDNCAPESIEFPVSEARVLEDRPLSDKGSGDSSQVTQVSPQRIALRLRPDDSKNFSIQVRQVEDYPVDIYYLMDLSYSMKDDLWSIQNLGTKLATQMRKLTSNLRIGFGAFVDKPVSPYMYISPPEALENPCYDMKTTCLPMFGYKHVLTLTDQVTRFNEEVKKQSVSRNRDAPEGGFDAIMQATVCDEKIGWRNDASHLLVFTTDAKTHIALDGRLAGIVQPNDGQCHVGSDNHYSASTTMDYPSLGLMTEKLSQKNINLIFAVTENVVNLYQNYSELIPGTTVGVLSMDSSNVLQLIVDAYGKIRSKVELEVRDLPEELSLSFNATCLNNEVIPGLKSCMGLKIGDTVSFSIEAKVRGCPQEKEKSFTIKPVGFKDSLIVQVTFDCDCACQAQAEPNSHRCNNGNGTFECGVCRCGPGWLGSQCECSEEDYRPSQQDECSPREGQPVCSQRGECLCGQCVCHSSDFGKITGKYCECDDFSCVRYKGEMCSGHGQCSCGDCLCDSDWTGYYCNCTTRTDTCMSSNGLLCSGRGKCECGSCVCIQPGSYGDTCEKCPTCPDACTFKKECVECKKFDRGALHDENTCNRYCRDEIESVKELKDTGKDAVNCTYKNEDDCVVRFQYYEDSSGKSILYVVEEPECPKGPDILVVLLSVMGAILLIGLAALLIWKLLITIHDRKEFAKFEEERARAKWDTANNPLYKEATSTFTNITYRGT

| Substance | Kd [4] | Kd [5] | further results |
| --- | --- | --- | --- |
| contortrostatin (CN), native (natural protein) |  |  | IC50 of inhibition of ADP-induced platelet aggregation in human platelet-rich plasma (blocks fibrinogen binding to αIIbβ3) [1]: 0.06 µM |
| purified soluble integrin αvβ3 (from UniProt P06756 31-1048; P05106 27-718) (receptor) |  |  | Kd [2]: 0.0074 µM; Kd [3]: 0.0066 µM |
| purified soluble integrin αvβ5 (from UniProt P06756 31-1048; P18084 24-719) (receptor) | 0.0412 µM | 0.0195 µM |  |
| soluble recombinant integrin α5β1 (from UniProt P08648 42-1049; P05556 21-728) (receptor) | 0.0152 µM | 0.191 µM |  |
| vicrostatin (VCN) (ligand) |  |  | IC50 of inhibition of ADP-induced platelet aggregation in human platelet-rich plasma (blocks fibrinogen binding to αIIbβ3) [6]: 0.06 µM |
